The values below come from US20210139605A1 (AGENCY FOR SCIENCE TECHNOLOGY AND RESEARCH, published 2021).

The target of experiment [1] is T1, human HER-2 protein (soluble / recombinant, used in SPR) (human, UniProt P04626 23-652).
T1 construct: also called immobilized HER2 protein; recombinant HER-2
The experiment can be described thus: SPR. For orientation: Surface plasmon resonance follows binding to a sensor surface in real time, without labels.

The target in experiment [2] is T2, EGFR (UniProt P00533 25-645, limits assumed).
T2 construct: also called HER1
The experiment is described as follows: SPR, EGFR immobilised on the chip, antibody flowed; concentration not given [panel P1F1]. The source says: (§1) In order to assess the specificity of the binding, molecules closely related to HER-2 were also used as bound antigens, namely EGFR and HER-3.

For experiment [3], the target named is T3, HER-3 (UniProt P21860 20-643, limits assumed). The experiment can be described thus: SPR, HER-3 immobilised on the chip, antibody flowed; concentration not given [panel P1F1].
Excerpt: as §1

Experiment [4] deals with T2, EGFR. The experiment is described as follows: SPR, EGFR immobilised on the chip, antibody flowed; concentration not given [panel P1C5].
Excerpt: as §1

The target of experiment [5] is T3, HER-3. The experiment can be described thus: SPR, HER-3 immobilised on the chip, antibody flowed; concentration not given [panel P1C5].
Excerpt: as §1

Experiment [6] has as its target T3, HER-3. The experiment is described as follows: SPR, HER-3 immobilised on the chip, antibody flowed; concentration not given [panel P1E4].
Excerpt: as §1

Experiment [7] has as its target T2, EGFR. The experiment can be described thus: SPR, EGFR immobilised on the chip, antibody flowed; concentration not given [panel P1E4].
Excerpt: as §1

In experiment [8] the target is T1, human HER-2 protein (soluble / …). The experiment can be described thus: SPR, human HER2 immobilised, Fab flown, 1:1 Langmuir model. As to the method: Rate constants of association, dissociation (kₐ, kd) and the equilibrium dissociation constants (KD) were determined for anti-HER2 Fab molecules. Human HER2 protein (50 μg/mL) was immobilised on the SPR sensor chip and was exposed to five different concentrations of each Fab in 2- or 3-fold dilutions over the flow cells. 1:1 Langmuir model was used to derive the constants.

The target is the same in experiment [9]. The experiment can be described thus: SPR, immobilized HER2 protein.
Experiment [10] addresses T3, HER-3. The experiment is described as follows: SPR, HER-3 immobilised on the chip, antibody flowed; concentration not given [panel P1A3].
Excerpt: as §1

Experiment [11] addresses T2, EGFR. The experiment can be described thus: SPR, EGFR immobilised on the chip, antibody flowed; concentration not given [panel P1A3].
Excerpt: as §1

In general, Kd refers to the equilibrium constant for the complex coming apart. As a reminder, the koff is a measure of how fast the partners let go of each other. The term kon denotes the rate constant with which the complex forms.

T3 sequence (P21860 20-643 limits assumed): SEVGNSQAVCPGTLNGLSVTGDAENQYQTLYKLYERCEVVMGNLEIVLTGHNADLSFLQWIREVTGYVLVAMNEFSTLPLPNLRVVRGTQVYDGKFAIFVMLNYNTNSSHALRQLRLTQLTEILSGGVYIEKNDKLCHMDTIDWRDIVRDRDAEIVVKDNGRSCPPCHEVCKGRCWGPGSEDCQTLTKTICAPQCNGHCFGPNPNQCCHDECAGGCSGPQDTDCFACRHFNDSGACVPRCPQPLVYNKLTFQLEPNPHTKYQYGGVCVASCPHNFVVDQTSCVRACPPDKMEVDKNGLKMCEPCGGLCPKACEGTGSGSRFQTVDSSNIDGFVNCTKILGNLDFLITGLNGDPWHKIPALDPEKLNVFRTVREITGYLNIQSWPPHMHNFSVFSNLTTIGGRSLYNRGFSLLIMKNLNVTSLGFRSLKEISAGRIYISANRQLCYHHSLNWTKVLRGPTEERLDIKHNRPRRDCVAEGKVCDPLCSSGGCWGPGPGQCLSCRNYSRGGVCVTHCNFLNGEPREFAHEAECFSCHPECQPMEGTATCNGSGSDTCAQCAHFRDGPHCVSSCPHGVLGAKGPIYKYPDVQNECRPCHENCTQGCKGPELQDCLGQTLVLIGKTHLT

B1: P1F1 antibody (antibody, V domains shown)
VH: QVQLVESGPGLVKPSGTLSLTCAVSGGSISSSNWWSWVRQPPGKGLEWIGEIYHSGSTNYNPSLKSRVTISVDTSKNQFSLKLSSVTAADTAVYYCARMGANSGGYLYGMDVWGQGTTVTVSS
VL: QTVVTQEPSFSVSPGGTVTLTCGLSSGSVSTSYYPSWYQQTPGQAPRTLIYSTNTRSSGVPDRFSGSILGNKAALTITGAQADDESDYYCVLYMGSGIWVFGGGTKLTVLG
Take B1: the Kd in experiment [1] turned out to be 11.6 nM. In addition, the binding result in experiment [2] and in experiment [3] was “no binding” each time.

B2: P1C5 antibody (antibody, V domains shown)
VH: QVQLQESGPGLVKPSETLSLTCTVSGGSISSSSYYWGWIRQPPGKGLEWIGSIYYSGSTYYNPSLKSRVTISVDTSKNQFSLKLSSVTAADTAVYYCARYAPDSSGYLVAFDIWGQGTMVTVSS
VL: QTVVTQEPSFSVSPGGTVTLTCGLSSGSVSTGYYPSWYQQTPGQAPRTLIYSTNSRSSGVPDRFSGSILGNKAALTITGAQADDESDYYCVLYMGSGISVFGGGTKLTVLG
As for B2, the Kd in experiment [1] is 12.7 nM. Also, the binding result in experiment [4] and in experiment [5] was “no binding” in each case.

B3: P1E4 antibody (antibody, V domains shown)
VH: QVQLQQWGAGLLKPSETLSLTCAVYGGSFSGYYWSWIRQPPGKGLEWIGEINHSGSTNYNPSLKSRVTISVDTSKNQFSLKLSSVTTADTAVYYCARMGINSGGYLYGMDVWGQGTTVTVSS
VL: QTVVTQEPSFSVSPGGTVTLTCGLSSGSVSTSYYPSWYQQIPGQAPRTLIYTTNIRSSGVPDRFGGSILGNKAALTITGAQAEDESDYYCMLYMGSGIWVFGGGTKLTVLG
On to B3, for which the Kd in [1] was found to be 5.3 nM. The binding result in experiment [6] and in experiment [7] was “no binding” in each case.

B4: PFG3 Fab (Fab, V domains shown)
VH: EVQLVQSGAEVKKPGTSVTVSCRASGFTFSDYYIHWVRQAPGQGLEWMGWVSAYNGDTNYAQKFQGRVTVTTDTSTSTAYMELRSLRSDDTAVYFCAREIASYSGSYYDYWGQGTLVTVSS
VL: QAVVLQEPSFSVSPGGTVTLTCGLTSGAVSSSYYPSWYQQTPGQAPRTLIYNTDIRFSGVPDRFSGSILGNKAALTITGAQADDESDYYCVLYMGSGISVFGGGTKLTVLG
notes: Printed entries run through CL and CH1 (Fab chains); Label G3 tied to PFG3 by inference
Regarding B4, in [8], the Kd stood at 183 nM, the koff is 0.019 s⁻¹ and the association rate constant (kon) turned out to be 108000 M⁻¹ s⁻¹. In addition, the off-rate constant (koff) in experiment [9] was determined as 0.0158 s⁻¹.

B5: PFF5 Fab (Fab, V domains shown)
VH: QVQLQESGPGLVKPSETLSLTCTVSGGSISSSSYYWGWIRQPPGKGLEWIGSIYYSGSTYYNPSLKSRVTISVDTSKNQFSLRLSSVSAADTAVYYCARYAPDSSGYLVAFDIWGQGTMVTVSS
VL: QAVVIQEPSFSVSPGGTVTLTCGLSSGSVSTTYYPSWYQQTPGQAPRTLIYSTNTRSSGVPDRFSGSILGNKAALTITGAQADDESDYYCVLYMGNGISVFGGGTKLTVLG
B5: in experiment [8], the Kd was 305 nM, the off-rate constant (koff) amounted to 0.014 s⁻¹ and the kon amounted to 44500 M⁻¹ s⁻¹. The koff in [9] is 0.0141 s⁻¹.

B6: P1A3 antibody (antibody, V domains shown)
VH: EVQLVQSGTEVKKPGASVRVSCKSSGYTFTSYYIHWVRQAPGQGLEWMAIINPGNGDTNYAQRFQGRVTMTRDTSTSTVYMELRSLRSDDTAVYFCAREIASYSGSYYDYWGQGTLVTVSS
VL: QAVVTQEPSLSVSPGGTVTLTCGLSSGSVSTGHYASWYQQTPGQAPRTLFYNTNTRSSGVPDRFSGSIVGNKAALTITGAQADDESDYYCVLYVGDGIWVFGGGTKLTVLG
Take B6: the Kd in [1] was determined as 21.4 nM. The binding result in experiment [10] and in experiment [11] was “no binding” throughout.

B7: PFA4 Fab (Fab, V domains shown)
VH: EVQLVQSGGGVVQPGRSLRLSCAASGFTFSSYAMHWVRQAPGKGLEWVAVISYDGSNKYYADSVKGRFTISRDNSKNTLYLQMNSLRAEDTAVYYCARSRGYYGMDVWGQGTTVTVSS
VL: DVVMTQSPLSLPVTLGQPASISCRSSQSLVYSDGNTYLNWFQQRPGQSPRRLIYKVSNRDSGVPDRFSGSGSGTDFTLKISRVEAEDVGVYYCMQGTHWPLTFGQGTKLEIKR
notes: Printed entries run through CL and CH1 (Fab chains); Label A4 tied to PFA4 by inference
As to B7, in experiment [8], the equilibrium dissociation constant (Kd) came out at 20.5 nM, the koff was 0.042 s⁻¹ and the kon stood at 2.03e+06 M⁻¹ s⁻¹. Moreover, the dissociation rate constant (koff) in experiment [9] amounted to 0.0196 s⁻¹.

B8: PFB4 Fab (Fab, V domains shown)
VH: EVQLVQSGGGVVQPGRSLRLSCAASGFTFSSYGMHWVRQAPGKGLEWVAVISYDGSNKYYADSVKGRFTISRDDSKNTLYLQMNSLRAEDTAVYYCAKDRGYYGMDVWGQGTTVTVSS
VL: QAVVIQEPSLTVSPGGTVTLTCGSTTGAVTSGHYPSWFQQKPGQAPRALIYSTSNKHSWTPARFSGSLLGGKAALTLSGVQPEDEAEYYCLLYYGGARVFGGGTKLTVLG
notes: Printed entries run through CL and CH1 (Fab chains); Label B4 tied to PFB4 by inference
Turning to B8, in experiment [8], the Kd was found to be 17.6 nM, the koff was found to be 0.078 s⁻¹ and the kon came to 4.41e+06 M⁻¹ s⁻¹. Moreover, the koff in experiment [9] stood at 0.0322 s⁻¹.

B9: PFE1 Fab (Fab, V domains shown)
VH: EVQLVQSGGGVVQPGRSLRLSCAASGFTFSSYAMHWVRQAPGKGLEWVAVISYDGSNKYYADSVKGRFTISRDNSKNTLYLQMNSLRAEDTAVYYCARSRGYYGMDVWGQGTTVTVSS
VL: DVVMTQSPLSLPVTLGQPASISCTSSQSLVYSDGNTYLNWFQQRPGQSPRRLIYKVSKRDSGVPDRFSGSGSGTDFTLKISRVEAEDVAIYYCMQGTHWPLTFGGGTKVEIKR
notes: Printed entries run through CL and CH1 (Fab chains); Label E1 tied to PFE1 by inference
As for B9, in [8], the dissociation constant Kd was found to be 16.5 nM, the koff is 0.026 s⁻¹ and the kon was 1.59e+06 M⁻¹ s⁻¹. In experiment [9], the koff is 0.013 s⁻¹.
